The values below come from IntAct's records for PubMed 20581824.

The target of one assay is nr1d1_human NR1D1 (UniProt P20393).
Chain of nr1d1_human NR1D1 (P20393 whole entry): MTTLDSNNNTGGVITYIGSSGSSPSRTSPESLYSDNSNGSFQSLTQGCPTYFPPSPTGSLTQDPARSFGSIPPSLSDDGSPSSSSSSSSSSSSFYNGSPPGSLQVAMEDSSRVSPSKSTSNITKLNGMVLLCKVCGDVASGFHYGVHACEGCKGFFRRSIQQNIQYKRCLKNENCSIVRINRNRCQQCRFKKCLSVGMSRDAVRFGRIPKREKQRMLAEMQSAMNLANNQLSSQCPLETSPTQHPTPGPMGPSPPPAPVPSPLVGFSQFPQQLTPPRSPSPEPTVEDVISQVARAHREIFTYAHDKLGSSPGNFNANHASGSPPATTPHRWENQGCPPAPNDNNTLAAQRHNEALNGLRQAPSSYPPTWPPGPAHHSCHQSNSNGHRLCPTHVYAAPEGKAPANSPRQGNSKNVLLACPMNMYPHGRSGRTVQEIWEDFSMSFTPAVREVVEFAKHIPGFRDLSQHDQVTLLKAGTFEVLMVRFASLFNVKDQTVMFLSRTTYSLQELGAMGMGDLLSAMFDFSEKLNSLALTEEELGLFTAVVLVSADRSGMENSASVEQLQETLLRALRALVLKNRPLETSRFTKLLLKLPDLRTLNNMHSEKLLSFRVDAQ
Regarding “Nuclear receptor corepressor 1 (Homo sapiens), O75376 L2051A”, the “effect of a mutation on the interaction” value is listed as “decreasing interaction”.
Consider “Nuclear receptor corepressor 1 (Homo sapiens), O75376 H2054A”, for which the “effect of a mutation on the interaction” value is given as “disrupting interaction”.
Still for that read-out and setting: the result for “Nuclear receptor corepressor 1 (Homo sapiens), O75376 H2046A” reads “decreasing interaction”; that for “Nuclear receptor corepressor 1 (Homo sapiens), O75376 L2048A”, “decreasing interaction”.

For a further assay the target is unchanged. The source holds these as a separate data set.
“Nuclear receptor corepressor 1 (Homo sapiens), O75376 I2058A;I2059A”: the “effect of a mutation on the interaction” value is “disrupting interaction”.
On the same count and under the same terms, as for “Nuclear receptor corepressor 1 (Homo sapiens), O75376 I2058A”, the entry is “disrupting interaction”.
On the same count and under the same terms, as for “Nuclear receptor corepressor 1 (Homo sapiens), O75376 I2059A”, the entry is “disrupting interaction”; as for “Nuclear receptor corepressor 1 (Homo sapiens), O75376 I2055A”, “disrupting interaction”.
